Measured values: patent publication US20030153066A1

Biological target: HIV-1 Gag Pr55 (wild-type) (HIV-1) (UniProt P03348)
Experiment: cell-based or functional assay

Substance WGHP68-GST fusion protein has an amount of 750S capsid in HP68-immunodepleted cell-free reactions after reconstitution of 3 fold.

With “HuHP68-GST fusion protein (from UniProt P61221 1-599)” the amount of 750S capsid in HP68-immunodepleted cell-free reactions after reconstitution was 3 fold.
